{
  "source": "paper PMC4512254",
  "target": "all other cases (NTSR1 nanodisc preparations other than WT in 100% POPC nanodiscs)",
  "assay": "radioligand binding",
  "data": [
    {"substance": "[3H]NTS ([3,11-tyrosyl-3,5-3H(N)]-neurotensin) (peptide)", "values": [
      {"measurement": "Kd", "result": 500, "unit": "pM"}
    ]}
  ]
}
